Laboratory results as given in PMC9687926, “High-Resolution Genetic Mapping Combined with Transcriptome Profiling Reveals That Both Target-Site Resistance and Increased Detoxification Confer Resistance to the Pyrethroid Bifenthrin in the Spider Mite Tetranychus urticae” (Biology, 2022).

Assays:
purified protein [1] = substrate: CC(=O)Oc1cccc2ccccc12; assay: purified protein; assay type: biochemical, Tetranychus urticae; conditions: 0.1 M phosphate buffer pH 7.5, 1 µg enzyme, fast blue RR
purified protein [2] = substrate: CC(=O)Oc1ccc([N+](=O)[O-])cc1; assay: purified protein; assay type: biochemical, Tetranychus urticae; conditions: 0.1 M phosphate buffer pH 7.5, 30 °C, 1 µg enzyme, 1% acetone

B1: CCE58 (Tetranychus urticae) (protein)
chain: TISENVEPELTLSSGSIRGTSVDFRGVKVYQFLGIPFAEPPLNELRFQKPVSKKPWNGVLSVNKWGSACMQPVFPGYNTELHLNEDCLVLNVFTTEAAFQDKQNGKKHKLRPVMVWIHGGSFNYGSANTPDQHDGTPITGLKDVIIVSINYRLGSLGFLQLPEAGVPGNMGLWDQQLALKWVKDNIEHFGGDPNKVTIFGESAGSMSVSAHLVSPQSKGLFTNAIMQSGSIYDLDRWTQPGLVANFTSKIGCISDNYKSCLSNYRFGQFPEADRLTFWPTVDGEFLPHRAEELVSNHTVDPNINVLLGTNANEGAFMLLMKDMVTFHPLNPINLTIPHAKYIFGKLFGKTLIDFYSERYLASLSADDSDSIRLAVTQALGDSIFTCPTYATGRDLIASGVPNVYGYVQTQKPTHTLISVSGQAKWMSNIASHADTFPMVFGHPFNKLDKFKNEDVVLSFLMMDIWTKFAKDGKPPQISHQEWLPWNLSDPIPYPTMVLNSNKIGLIETKSAEFCAKNWPFPLENYYSMDSESGVYAEIE
notes: full-length MR-VL allele, signal peptide removed, codon-optimised, pPICZalphaA secretion in Pichia pastoris X-33, 6xHis tag, Ni-NTA purified, about 75 kDa on SDS-PAGE
Km (purified protein [1]): 0.446 (±0.051) mM
Km (purified protein [2]): 0.379 (±0.028) mM
